Assay results as given in patent CN114605532A (BEIJING FIRST BIOCHEMICAL PHARMACEUTICAL LTD COMPANY, dated 2022).

Target: 抗原(bs-0107P)
Experiment: indirect ELISA, antigen bs-0107P coated at 2 μg/ml (0.2 μg/well), purified antibody in serial dilution, HRP goat anti-mouse IgG, OD450

Sequence of 抗原(bs-0107P) (P05067 672-713): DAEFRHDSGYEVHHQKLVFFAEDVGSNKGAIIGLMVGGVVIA

B1: 抗β-淀粉样蛋白单克隆抗体7D10-1E6 (antibody, V domains shown)
VH: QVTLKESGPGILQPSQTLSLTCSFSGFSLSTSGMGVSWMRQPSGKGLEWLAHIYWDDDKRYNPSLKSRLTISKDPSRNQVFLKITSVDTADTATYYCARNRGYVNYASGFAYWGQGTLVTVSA
VL: DVLMTQTPLSLPVSLGDQASISCRSSQSIVHSNGNTYLEWYLQKPGQSPKLLIYKVSNRFSGVPDRFSGSGSGTDFILKINRVEAEDLGVYYCFQGSHVPLTFGAGTKLELK
- EC50: 0.0237 nM
